{"source": "patent US20220411536A1", "key": {"[1]": {"biological_target": "unidentified antigen on CHO PD-L1 cells bound by pertuzumab (the filing speculates hamster HER2)", "assay": "flow cytometry, CHO PD-L1 cells (residual binding)"}, "[2]": {"biological_target": "unidentified antigen on CHO PD-L1 cells bound by pertuzumab (the filing speculates hamster HER2)", "assay": "flow cytometry, CHO PD-L1 cells; reference pertuzumab"}}, "data": [{"substance": "pertuzumab (antibody)", "values": [{"measurement": "EC50", "setting": "[1]", "value": 1.29, "unit": "nM"}, {"measurement": "rel. EC50 (EC50 reference/EC50 sample)", "setting": "[2]", "value": 1}]}]}
